Laboratory results: the RNAGym collection of RNA variant scans (doi:10.7554/elife.80360)

B1: HDV Ribozyme (parent)
chain: GGCCGGCAUGGUCCCAGCCUCCUCGCUGGCGCCGGCUGGGCAACAUUCCGAGGGGACCGUCCCCUCGGUAAUGGCGAAUGGGACCCA

Variants of: B1
Experiment: self-cleavage, relative activity (ratio to wild type); higher = more cleavage; co-transcriptional

| Variant | self-cleavage |
| --- | --- |
| G5C G67C | 0.252 |
| C36G A42C | 0.0811 |
| G5A C14U | 0.119 |
| G40A G53C | 1.01 |
| U12C U23C | 0.755 |
| C14G A51C | 0.712 |
| G29A C41G | 0.0339 |
| U65A G80C | 0.123 |
| C57G A83C | 0.554 |
| U65C G68A | 0.959 |
| U37A G59C | 0.224 |
| C26U G59U | 0.881 |
| G38A U69A | 0.148 |
| G10U C26U | 1.13 |
| G52C C85G | 1.03 |
| A8U U20A | 0.166 |
| A43G G73A | 0.219 |
| U46G G82C | 0.158 |
| G34U U65G | 0.146 |
| G31U U79G | 0.147 |
| U9C G80U | 0.193 |
| G35U C75A | 0.138 |
| C7U A16U | 0.643 |
| C30G C58A | 0.0386 |

| Variant | self-cleavage |
| --- | --- |
| C57G C58A | 1.26 |
| C61A C64G | 0.791 |
| C13A C44U | 0.0652 |
| C30G G39A | 0.0608 |
| C3G G82C | 0.0923 |
| C49A C61G | 0.816 |
| G6A C32U | 1.12 |
| G1C A16C | 0.128 |
| C21U C75A | 0.0739 |
| C18G G29A | 0.217 |
| C19A C75A | 0.185 |
| A45U A71C | 0.653 |
| G54C C75U | 0.358 |
| G10C C22A | 0.108 |
| C7U G73C | 0.224 |
| C49G U69C | 0.898 |
| A45U U60A | 0.723 |
| G31A C62G | 0.317 |
| G11C G40A | 0.208 |
| G10U G11U | 0.344 |
| U37C U46G | 0.787 |
| A56U A70U | 1.09 |
| G31C U37C | 0.0707 |
| G31C C64U | 0.324 |

| Variant | self-cleavage |
| --- | --- |
| A45U G55A | 0.594 |
| C41A C48U | 1.02 |
| C14A C21G | 0.141 |
| A8U C86A | 0.997 |
| C7G G10A | 0.128 |
| C7U U79C | 0.126 |
| A8C U23G | 0.332 |
| G40C G53C | 0.17 |
| U37G G40A | 0.302 |
| G6C G39U | 0.108 |
| C13U C41A | 0.522 |
| C7A A70C | 0.346 |
| C36U G68C | 0.563 |
| C57G G59C | 0.969 |
| G2U A56C | 0.0405 |
| C44U U46C | 0.571 |
| U20G C57A | 0.111 |
| C24U C30A | 0.0482 |
| G38C G74U | 0.0739 |
| C7A U46C | 0.453 |
| A43C A45G | 0.643 |
| C30U C36A | 0.193 |
| C14A A43U | 0.145 |
| C21U C44U | 0.62 |

| Variant | self-cleavage |
| --- | --- |
| C36A A87C | 0.147 |
| C7G G28C | 0 |
| C3U U20A | 0.0308 |
| U23C U46C | 0.745 |
| U27G U46C | 0.997 |
| C26A C57G | 1.1 |
| A56C U69A | 0.776 |
| G54C G68U | 0.616 |
| C30G G67C | 0.0528 |
| C21U G76C | 0.347 |
| U27C U60G | 0.875 |
| C64G G80A | 0.641 |
| G29U C44A | 0.0297 |
| G25U C41A | 0.125 |
| A56G A77G | 1.11 |
| G38A C84A | 0.185 |
| C21G G54U | 0.0875 |
| C21A U69C | 0.0426 |
| A43C G74U | 0.415 |
| C26U A51G | 0.95 |
| G39C G82C | 0.0997 |
| U69A A71G | 0.731 |
| A43G C61U | 0.739 |
| A8G G40C | 0.369 |

| Variant | self-cleavage |
| --- | --- |
| C63A G74C | 0.312 |
| G29U C33A | 0.0519 |
| C41G | 0.798 |
| G11U G76A | 0.292 |
| A8G C84U | 0.864 |
| G29U C62G | 0 |
| U47C C61A | 0.872 |
| U23A C24G | 0.113 |
| G38U C61U | 0.174 |
| A8U G10A | 0.684 |
| A42G A71U | 0.502 |
| C4U A42G | 0.138 |
| G54A U72A | 0.707 |
| C4G G39U | 0.0346 |
| C66U G76A | 0.86 |
| C66U G76U | 0.936 |
| C44U G74A | 0.427 |
| C3G C63U | 0.589 |
| C18G A78U | 0.0723 |
| A56G C64A | 0.764 |
| G10U G52A | 0.878 |
| U47C C62G | 0.415 |
| C36A | 0.147 |
| G39U C86U | 0.858 |

| Variant | self-cleavage |
| --- | --- |
| C4A G29A | 0.0244 |
| G2C G29A | 0.155 |
| A43G U60A | 0.594 |
| G38A C75U | 0.0443 |
| U27G C30A | 0.458 |
| G29C A87U | 0.0378 |
| C15U G17C | 0.0978 |
| A43G C64G | 0.644 |
| C3U C7G | 0 |
| U9G G67U | 1.25 |
| C4U A43U | 0.332 |
| G38U G80C | 0.108 |
| G34C A83C | 0.0898 |
| C36G G80U | 0.0507 |
| C24G C41A | 0.113 |
| C15G G80U | 0.73 |
| G38U C57G | 0.38 |
| A16C A51G | 0.475 |
| A8C C49G | 0.475 |
| C58U U69G | 0.965 |
| G2A C21U | 0.0161 |
| U27C C41G | 0.217 |
| U65A U69G | 0.806 |
| U12A U27C | 0.35 |

| Variant | self-cleavage |
| --- | --- |
| C30G U46C | 0.0831 |
| G17U G54A | 0.326 |
| C3G U72C | 0.267 |
| C61A G73U | 0.353 |
| A51C G73U | 0.567 |
| G34A C64G | 0.0963 |
| C61U G81C | 0.29 |
| C7U C66G | 0.974 |
| G29U A45G | 0.0923 |
| C36U A56C | 0.888 |
| C66G G82A | 0.369 |
| U20C C63G | 0.104 |
| G40U U72A | 0.181 |
| C15U C21U | 0.17 |
| U46C C61G | 0.734 |
| U37C G40U | 0.456 |
| C13U G34C | 0.0898 |
| A70C C86G | 1.35 |
| G39U G80U | 0.119 |
| G35U G59C | 0.7 |
| G52A A87C | 1.13 |
| A16G C61G | 0.962 |
| G55U A56G | 0.912 |
